Laboratory results: PMC7773337 (2020)
Values belong to the binder of their own block, whether it stands above or below them.

Biological target: reconstituted mononucleosomes (histone octamer on Widom '601' DNA)

Kd: 0.43 µM
B1: zz-LAP1B(98-136)-His6 wild-type (domain or fragment)
chain: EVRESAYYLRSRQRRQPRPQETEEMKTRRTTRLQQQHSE

Kd: 9.13 µM
B2: zz-LAP1B(98-136)-2E His6 (S108E, T124E) (domain or fragment)
chain: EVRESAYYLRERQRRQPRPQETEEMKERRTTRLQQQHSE
